Legend:
[1] = molecular target: T1, myo-inositol monophosphatase 1 (IMPA1), purified bovine brain (bovine, UniProt P20456 1-277); experiment: cross-linking
T1 sequence (looked up): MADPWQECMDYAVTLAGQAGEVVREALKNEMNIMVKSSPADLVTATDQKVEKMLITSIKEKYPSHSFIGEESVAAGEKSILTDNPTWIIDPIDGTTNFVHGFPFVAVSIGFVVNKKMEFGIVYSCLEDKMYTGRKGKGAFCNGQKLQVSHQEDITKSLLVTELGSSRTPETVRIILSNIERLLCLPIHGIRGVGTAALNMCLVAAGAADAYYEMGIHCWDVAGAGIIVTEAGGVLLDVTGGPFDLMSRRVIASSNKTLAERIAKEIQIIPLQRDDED

cross-linking = molecular target: the molecule itself; experiment: cross-linking

binding result [1]: binds
B1: S100B, purified bovine brain (natural protein, UniProt P02638 1-92, looked up)
chain: MSELEKAVVALIDVFHQYSGREGDKHKLKKSELKELINNELSHFLEEIKEQEVVDKVMETLDSDGDGECDFQEFMAFVAMITTACHEFFEHE
binding result (cross-linking): binds

From publication PMC3351107 (Cerebellum (London, England), 2009)
